Tests used:
PriA Asp438Ala = PriA Asp438Ala (Escherichia coli, UniProt P17888 1-732, D438A); conditions: protein: recombinant; tags: N-terminal His; label: 5'-32P on 3L-98 (strand 2); fork 1:2 1:3; ssDNA lagging arm (strand 2)
PriA Thr482Ala = PriA Thr482Ala (Escherichia coli, UniProt P17888 1-732, T482A); conditions: protein: recombinant; tags: N-terminal His; label: 5'-32P on 3L-98 (strand 2); fork 1:2 1:3; ssDNA lagging arm (strand 2)
PriA His483Ala = PriA His483Ala (Escherichia coli, UniProt P17888 1-732, H483A); conditions: protein: recombinant; tags: N-terminal His; label: 5'-32P on 3L-98 (strand 2); fork 1:2 1:3; ssDNA lagging arm (strand 2)
PriA CRR triple variant = PriA CRR triple variant (Escherichia coli, UniProt P17888 1-732, D438A;T482A;H483A); conditions: protein: recombinant; tags: N-terminal His; label: 5'-32P on 3L-98 (strand 2); fork 1:2 1:3; ssDNA lagging arm (strand 2)
[1] = molecular target: PriA;PriB C-term Arg44Ala LD (Escherichia coli;Escherichia coli, UniProt P17888;P07013 1-732;1-104+1-104, |R44A;internal_change); conditions: protein: recombinant;recombinant; tags: N-terminal His;; copies: 1;1; label: 5'-32P on 3L-98 (strand 2); fork 1:2 1:3; ssDNA lagging arm (strand 2)
[2] = molecular target: PriA;PriB N-term Arg44Ala LD (Escherichia coli;Escherichia coli, UniProt P17888;P07013 1-732;1-104+1-104, |R44A;internal_change); conditions: protein: recombinant;recombinant; tags: N-terminal His;; copies: 1;1; label: 5'-32P on 3L-98 (strand 2); fork 1:2 1:3; ssDNA lagging arm (strand 2)
PriA;PriB = PriA;PriB (Escherichia coli;Escherichia coli, UniProt P17888;P07013 1-732;1-104, |); conditions: protein: recombinant;recombinant; tags: N-terminal His;none; copies: 1;2; label: 5'-32P on 3L-98 (strand 2); fork 1:2 1:3; ssDNA lagging arm (strand 2)

B1: Fork 1 (structured_DNA)
DNA 1: GCAAGCCTTCTACAGGTCGACCGTCCATGGCGACTCGAGACCGCAATACGGATAAGGGCTGAGCACGCCGACGAACATTCACCACGCCAGACCACGTA
DNA 2: GACTATCTACGTCCGAGGCTCGCGCCGCAGACTCATTTAGCCCTTATCCGTATTGCGGTCTCGAGTCGCCATGGACGGTCGACCTGTAGAAGGCTTGC
DNA 3: TACGTGGTCTGGCGTGGTGAATGTTCGTCGGCGTGCTC
Binder B1 has a binding signal (PriA Asp438Ala) of 95 ± 1.9 % fork shifted, a binding signal (PriA Thr482Ala) of 91.3 ± 6.5 % fork shifted and a binding signal (PriA His483Ala) of 92.2 ± 3.7 % fork shifted. For the same binder, the binding signal (PriA CRR triple variant) was 95.8 ± 3.1 % fork shifted, the binding result [1] was “binds” and the binding result [2] was “binds”. B1: binds (PriA;PriB).

Reference: publication PMC10175261
